In patent US20190389958A1 (MSM PROTEIN TECHNOLOGIES, published 2019):

B1: V62.1-R108H-m47-m38 (antibody, human IgG1, V domains shown)
VH: EVQLLESGGGLVQPGGSLRLSCAASGFTFSSYAMSWVRQAPGKGLEWVSAISGSGGTRYADSVKGRFTISRDNSKNTLYLQMNSLRAEDTAVYYCARQGKTRVYGYHWHGYGSTHALDYWGQGTLVTVSS
VL: EIVLTQSPGTLSLSPGERATLSCRASQSVSSSYLAWYQQKPGQAPRLLIYGASSRATGIPDRFSGSGSGTDFTLTISRLEPEDFAVYYCQQWSSDSVTFGQGTKVEIKR
notes: Tested as an IgG (human IgG1 format); also called V62.1-H-m47-m38; IgG1 62.1-R108H-m47-m38
B2: V62.1-R108H (antibody, human IgG1, V domains shown)
VH: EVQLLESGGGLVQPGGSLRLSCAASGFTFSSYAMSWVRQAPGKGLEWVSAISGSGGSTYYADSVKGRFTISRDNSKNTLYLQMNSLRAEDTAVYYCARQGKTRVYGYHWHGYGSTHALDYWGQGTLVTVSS
VL: EIVLTQSPGTLSLSPGERATLSCRASQSVSSSYLAWYQQKPGQAPRLLIYGASSRATGIPDRFSGSGSGTDFTLTISRLEPEDFAVYYCQQSDYSYPFTFGQGTKVEIKR
notes: Tested as an IgG (human IgG1 format); also called IgG1 V62.1 R108H
B3: V62.1-R108H-m80 (antibody, human IgG1, V domains shown)
VH: EVQLLESGGGLVQPGGSLRLSCAASGFTISPYSITWVRQAPGKGLEWVSQINSYNGKTYYADSVKGRFTISRDNSKNTLYLQMNSLRAEDTAVYYCARQGKTRVYGYHWHGYGSTHALDYWGQGTLVTVSS
VL: B2 VL
notes: Tested as an IgG (human IgG1 format); also called V62.1-H-m80; V62.1-R108H-m80-Wt
B4: V62.1 (antibody, human IgG1, V domains shown)
VH: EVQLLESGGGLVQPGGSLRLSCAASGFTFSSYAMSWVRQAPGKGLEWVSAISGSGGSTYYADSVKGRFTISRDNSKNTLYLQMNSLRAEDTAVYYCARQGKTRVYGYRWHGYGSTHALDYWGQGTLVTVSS
VL: B2 VL
notes: Tested as an IgG (human IgG1 format; DP47 heavy and DPK22 kappa light frameworks) made in CHO-3E7 cells; also called IgG V62.1

How the values were obtained:
[1] = target: T1, human CXCR4 (human, UniProt P61073 1-352); assay: cell-based or functional assay
T1 sequence (P61073 whole entry): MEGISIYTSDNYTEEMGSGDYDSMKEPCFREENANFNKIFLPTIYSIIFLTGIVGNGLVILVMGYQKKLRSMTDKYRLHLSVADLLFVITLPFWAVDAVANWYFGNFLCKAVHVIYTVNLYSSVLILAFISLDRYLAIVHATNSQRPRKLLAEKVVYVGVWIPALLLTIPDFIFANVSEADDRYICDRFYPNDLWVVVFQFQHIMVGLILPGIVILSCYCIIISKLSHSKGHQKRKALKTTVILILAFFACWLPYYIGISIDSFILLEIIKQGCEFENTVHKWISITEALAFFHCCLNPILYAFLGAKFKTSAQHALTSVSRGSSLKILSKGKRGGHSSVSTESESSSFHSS

[2] = target: T2, hCCR6 (human, UniProt P51684 1-374); assay: flow cytometry, IgG 100 nM, cells over-expressing hCCR6
T2 construct: whole, on cells
T2 sequence (looked up): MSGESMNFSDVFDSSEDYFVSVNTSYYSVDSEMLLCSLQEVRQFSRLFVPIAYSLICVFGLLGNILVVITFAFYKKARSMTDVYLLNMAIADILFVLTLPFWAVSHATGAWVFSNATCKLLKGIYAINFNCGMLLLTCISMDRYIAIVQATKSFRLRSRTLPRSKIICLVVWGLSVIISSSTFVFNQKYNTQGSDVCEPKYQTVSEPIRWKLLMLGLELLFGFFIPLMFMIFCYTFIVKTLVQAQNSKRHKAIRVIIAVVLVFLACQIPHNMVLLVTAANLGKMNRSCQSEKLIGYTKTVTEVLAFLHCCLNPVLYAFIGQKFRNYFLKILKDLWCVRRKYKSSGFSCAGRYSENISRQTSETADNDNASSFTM
Experimental: (§1) Cells over-expressing different GPCRs other than CXCR4 and several lines transfected to over-express CXCR4 (R1610-hCXCR4, Cf2Th-hCXCR4 and CHO-hCXCR4) were compared. Cultures were incubated with a test IgG at 100 nM in FACS buffer for 40 min at 4° C. Thereafter, cells were washed twice, stained with anti-human-Fc antibody-PE conjugate (Jackson Immunoresearch Laboratories Inc., West Grove, Pa.), washed twice in FACS buffer and then transferred to FIX buffer. Fluorescence intensities were measured by GUAVA PCA-96 at 425V (in triplicate).
(§2) The expression of GPCRs other than CXCR4 was confirmed using commercially available antibodies (positive controls). For example, a commercial anti-CXCR1 antibody was used as a positive control for confirming the expression of CXCR1 on the CXCR1-transfected CHO cells.

[3] = target: T3, hCCR10 (human, UniProt P46092 1-362); assay: flow cytometry, IgG 100 nM, cells over-expressing hCCR10
T3 construct: whole, on cells
T3 sequence (looked up): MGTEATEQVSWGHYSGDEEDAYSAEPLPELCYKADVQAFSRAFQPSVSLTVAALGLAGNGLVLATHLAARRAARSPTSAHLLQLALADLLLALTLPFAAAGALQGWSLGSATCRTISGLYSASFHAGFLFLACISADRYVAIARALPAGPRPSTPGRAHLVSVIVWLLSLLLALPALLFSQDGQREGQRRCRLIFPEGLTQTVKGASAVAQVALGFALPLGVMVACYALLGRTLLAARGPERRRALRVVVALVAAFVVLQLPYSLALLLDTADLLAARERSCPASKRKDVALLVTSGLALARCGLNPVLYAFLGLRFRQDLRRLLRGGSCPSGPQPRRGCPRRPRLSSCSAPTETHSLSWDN
Experimental: as §1, §2

[4] = target: T4, hCXCR3 (human, UniProt P49682 1-368); assay: flow cytometry, IgG 100 nM, cells over-expressing hCXCR3
T4 construct: whole, on cells
T4 sequence (looked up): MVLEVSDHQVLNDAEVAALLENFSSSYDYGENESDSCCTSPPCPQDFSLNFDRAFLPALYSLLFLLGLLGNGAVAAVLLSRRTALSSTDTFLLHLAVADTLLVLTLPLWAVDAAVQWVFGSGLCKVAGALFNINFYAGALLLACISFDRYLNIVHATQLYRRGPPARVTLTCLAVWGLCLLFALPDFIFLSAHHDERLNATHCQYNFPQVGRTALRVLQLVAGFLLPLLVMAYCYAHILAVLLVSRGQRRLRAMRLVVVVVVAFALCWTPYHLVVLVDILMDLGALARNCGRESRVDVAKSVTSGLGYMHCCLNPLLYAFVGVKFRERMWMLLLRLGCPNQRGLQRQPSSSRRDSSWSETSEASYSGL
Experimental: as §1, §2

[5] = target: T5, hCXCR5 (human, UniProt P32302 1-372); assay: flow cytometry, IgG 100 nM, cells over-expressing hCXCR5
T5 construct: whole, on cells
T5 sequence (looked up): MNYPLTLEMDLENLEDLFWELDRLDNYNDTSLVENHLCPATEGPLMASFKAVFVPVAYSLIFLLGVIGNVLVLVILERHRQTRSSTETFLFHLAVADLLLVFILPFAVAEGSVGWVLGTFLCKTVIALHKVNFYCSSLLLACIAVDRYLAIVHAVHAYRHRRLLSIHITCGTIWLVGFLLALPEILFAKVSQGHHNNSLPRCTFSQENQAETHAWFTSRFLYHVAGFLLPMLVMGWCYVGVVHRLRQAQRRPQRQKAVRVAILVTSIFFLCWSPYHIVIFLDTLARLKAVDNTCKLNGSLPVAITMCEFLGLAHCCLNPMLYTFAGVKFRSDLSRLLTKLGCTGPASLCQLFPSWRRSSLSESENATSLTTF
Experimental: as §1, §2

[6] = target: T6, hCXCR7 (human, UniProt P25106 1-362); assay: flow cytometry, IgG 100 nM, cells over-expressing hCXCR7
T6 construct: whole, on cells
T6 sequence (P25106 whole entry): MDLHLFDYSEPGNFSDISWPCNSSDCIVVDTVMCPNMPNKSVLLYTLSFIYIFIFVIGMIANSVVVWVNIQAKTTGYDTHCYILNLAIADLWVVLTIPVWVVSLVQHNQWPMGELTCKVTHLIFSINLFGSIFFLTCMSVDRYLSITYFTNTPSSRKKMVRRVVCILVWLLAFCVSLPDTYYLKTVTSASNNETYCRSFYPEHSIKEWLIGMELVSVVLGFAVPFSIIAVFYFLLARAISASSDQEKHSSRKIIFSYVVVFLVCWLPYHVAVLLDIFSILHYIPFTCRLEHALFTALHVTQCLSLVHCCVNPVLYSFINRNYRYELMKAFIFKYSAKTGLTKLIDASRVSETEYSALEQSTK
Experimental: as §1, §2

[7] = target: T1, human CXCR4; assay: flow cytometry, IgG 10 µg/mL, CXCR4-expressing Ramos (RA1) cells
Experimental: Binding of test IgGs to CXCR4-expressing human lymphoma cells (Ramos; RA1, ATCC® CRL-1596™) was measured by fluorescent flow cytometry-based assay. Tumor cell staining was conducted as follows: human Fcγ receptors of RA1 cells were saturated by incubation at 4° C. for 30 minutes in PBS containing 2% human serum and 0.5 mM EDTA. Cells were then incubated at 4° C. for one hour with test IgGs or a human isotypic IgG1 kappa control (Coger Sarl, Paris, France) (both antibody types at 10 μg/mL). The cells were washed with PBS and further incubated for one hour at 4° C. with a goat F(ab′)2 fragment anti-human IgG (H+L)-PE (Beckman Coulter). The cells were washed twice with PBS and fixed with 0.5% formaldehyde in PBS for analysis by flow cytometry. The data were acquired using an eleven-color flow cytometer (LSRII, BD Biosciences), and the analyses were performed with the FlowJo flow cytometry analysis software (Tree Star Inc., Ashland, Oreg.). The living cells were selected using the side scatter (SSC) and the forward scatter (FSC); 10,000 events were acquired for each analysis. MFI values were recorded using the PE channel.

| Binder | IC50 (nM), inhibition of SDF-1alpha-induced calcium flux [1] [nM] | MFI [2] | MFI [3] | MFI [4] | MFI [5] | MFI [6] | MFI [7] |
| --- | --- | --- | --- | --- | --- | --- | --- |
| B1 | 5 | 2 | 2 | 2 | 2 | 2 | 549 |
| B2 | 6.8 | 3 | 3 | 3 | 3 | 4 | 429 |
| B3 | 7.5 | 10 | 10 | 2 | 2 | 2 | 440 |
| B4 | 7.4 | 3 | 4 | 3 | 4 | 3 | 595 |
